Assay results as given in patent publication US20260265381A1 (Hoffmann-La Roche, published 2026).
Residue numbers refer to the chain shown, from its start. Numbers in names are those of the source.

T1: rat RT1 (SEQ ID NO: 43) (rat)
T1 construct: Recombinant single-chain peptide-MHC complex construct (peptide, β2M, MHC class I molecule); also called rat RT1A β2M MHC class I complex
T1 chain: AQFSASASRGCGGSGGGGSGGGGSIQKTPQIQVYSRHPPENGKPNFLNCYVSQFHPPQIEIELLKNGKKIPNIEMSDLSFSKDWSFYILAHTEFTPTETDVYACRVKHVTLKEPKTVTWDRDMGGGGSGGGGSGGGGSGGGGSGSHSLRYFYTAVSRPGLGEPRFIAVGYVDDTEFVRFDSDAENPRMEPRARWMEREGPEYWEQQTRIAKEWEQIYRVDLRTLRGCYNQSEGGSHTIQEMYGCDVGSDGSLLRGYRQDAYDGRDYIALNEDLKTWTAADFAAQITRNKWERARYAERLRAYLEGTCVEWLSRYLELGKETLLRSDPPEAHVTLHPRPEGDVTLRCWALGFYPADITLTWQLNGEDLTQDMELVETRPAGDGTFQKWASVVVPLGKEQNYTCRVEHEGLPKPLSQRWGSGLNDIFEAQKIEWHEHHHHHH

B1: HLA-G-0090 (antibody, IgG1, V domains shown)
VH: QVQLQQSGPGLLKPSQTLSLTCAISGDSVSSNRAAWNWIRQSPSRGLEWLGRTYYRSKWYNDYAVSVQGRITLIPDTSKNQFSLRLNSVTPEDTAVYYCASVRAVAPFDYWGQGVLVTVSS
VL: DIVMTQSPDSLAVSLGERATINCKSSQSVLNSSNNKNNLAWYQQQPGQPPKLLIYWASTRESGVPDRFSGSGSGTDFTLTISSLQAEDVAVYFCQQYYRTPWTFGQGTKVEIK
modifications: N-glycosylation motif NSS in CDR-L1 at light chain positions 31 to 33 (Fab glycosylation detected)
notes: the parental antibody was expressed alongside them; also called parental antibody
B2: HLA-G-0090-VL-S32P (antibody, IgG1, V domains shown)
VH: B1 VH
VL: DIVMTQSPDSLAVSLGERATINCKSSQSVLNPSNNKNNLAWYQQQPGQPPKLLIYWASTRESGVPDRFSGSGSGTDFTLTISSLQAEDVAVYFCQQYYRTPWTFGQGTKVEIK
notes: also called HLA-G-0090-S32P
B3: HLA-G-0090-VL-S33A (antibody, IgG1, V domains shown)
VH: B1 VH
VL: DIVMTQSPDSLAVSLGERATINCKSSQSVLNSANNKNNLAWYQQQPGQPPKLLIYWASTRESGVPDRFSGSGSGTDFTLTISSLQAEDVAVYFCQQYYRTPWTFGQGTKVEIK
notes: also called HLA-G-0090-S33A
B4: HLA-G-0090-VL-N31Y-N38Y (antibody, IgG1, V domains shown)
VH: B1 VH
VL: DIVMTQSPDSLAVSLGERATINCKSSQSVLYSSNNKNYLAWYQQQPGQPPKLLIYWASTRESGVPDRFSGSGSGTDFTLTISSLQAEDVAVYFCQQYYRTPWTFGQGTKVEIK
notes: also called HLA-G-0090-VL-N31Y-N38Y-GL; HLA-G-0090-N31Y-N38Y
B5: HLA-G-0090-VL-N31Q (antibody, IgG1, V domains shown)
VH: B1 VH
VL: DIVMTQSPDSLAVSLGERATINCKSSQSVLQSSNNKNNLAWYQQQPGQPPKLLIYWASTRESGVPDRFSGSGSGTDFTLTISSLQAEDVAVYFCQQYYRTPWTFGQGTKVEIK
notes: also called HLA-G-0090-N31Q
B6: HLA-G-0090-VL-N31T (antibody, IgG1, V domains shown)
VH: B1 VH
VL: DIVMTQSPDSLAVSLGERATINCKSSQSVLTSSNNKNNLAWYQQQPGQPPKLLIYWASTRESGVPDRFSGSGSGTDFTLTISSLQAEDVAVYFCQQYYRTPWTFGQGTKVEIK
notes: also called HLA-G-0090-N31T
B7: HLA-G-0090-VL-N31D (antibody, IgG1, V domains shown)
VH: B1 VH
VL: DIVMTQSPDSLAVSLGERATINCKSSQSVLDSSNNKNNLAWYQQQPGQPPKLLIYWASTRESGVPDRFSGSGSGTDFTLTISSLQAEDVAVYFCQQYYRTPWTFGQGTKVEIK
notes: also called HLA-G-0090-N31D
B8: HLA-G-0090-VL-N31Y (antibody, IgG1, V domains shown)
VH: B1 VH
VL: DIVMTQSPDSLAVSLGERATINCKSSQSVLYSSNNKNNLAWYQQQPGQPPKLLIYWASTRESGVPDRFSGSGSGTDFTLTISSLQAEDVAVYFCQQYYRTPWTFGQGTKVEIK
notes: also called HLA-G-0090-N31Y
B9: HLA-G-0090-VL-N31L (antibody, IgG1, V domains shown)
VH: B1 VH
VL: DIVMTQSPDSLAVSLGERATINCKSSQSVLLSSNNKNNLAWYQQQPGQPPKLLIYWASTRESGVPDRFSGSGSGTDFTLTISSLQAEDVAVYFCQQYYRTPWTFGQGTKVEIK
notes: also called HLA-G-0090-N31L
B10: HLA-G-0090-VL-N31S (antibody, IgG1, V domains shown)
VH: B1 VH
VL: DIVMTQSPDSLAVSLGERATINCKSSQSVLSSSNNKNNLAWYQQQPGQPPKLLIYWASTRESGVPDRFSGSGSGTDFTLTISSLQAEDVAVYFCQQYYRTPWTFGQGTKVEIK
notes: also called HLA-G-0090-N31S
B11: P1AF7977 (HLA-G-0090-VL-S32P/CD3 P035-093 (P035)) (bispecific antibody, human IgG1, kappa, L234A L235A)
light 1: EVQLLESGGGLVQPGGSLRLSCAASGFTFSSYAMNWVRQAPGKGLEWVSRIRSKYNNYATYYADSVKGRFTISRDDSKNTLYLQMNSLRAEDTAVYYCVRASNFPASYVSYFAYWGQGTLVTVSSASVAAPSVFIFPPSDEQLKSGTASVVCLLNNFYPREAKVQWKVDNALQSGNSQESVTEQDSKDSTYSLSSTLTLSKADYEKHKVYACEVTHQGLSSPVTKSFNRGEC
light 2: not shown
heavy 1: QVQLQQSGPGLLKPSQTLSLTCAISGDSVSSNRAAWNWIRQSPSRGLEWLGRTYYRSKWYNDYAVSVQGRITLIPDTSKNQFSLRLNSVTPEDTAVYYCASVRAVAPFDYWGQGVLVTVSSASTKGPSVFPLAPSSKSTSGGTAALGCLVEDYFPEPVTVSWNSGALTSGVHTFPAVLQSSGLYSLSSVVTVPSSSLGTQTYICNVNHKPSNTKVDEKVEPKSCDKTHTCPPCPAPEAAGGPSVFLFPPKPKDTLMISRTPEVTCVVVDVSHEDPEVKFNWYVDGVEVHNAKTKPREEQYNSTYRVVSVLTVLHQDWLNGKEYKCKVSNKALGAPIEKTISKAKGQPREPQVCTLPPSRDELTKNQVSLSCAVKGFYPSDIAVEWESNGQPENNYKTTPPVLDSDGSFFLVSKLTVDKSRWQQGNVFSCSVMHEALHNHYTQKSLSLSP
heavy 2: not shown
notes: 2+1 T cell bispecific: light chain 1 is the crossed VH(CD3)-CL chain, light chain 2 the HLA-G light chain (two copies, CLM-00046); also called HLA-G TCB
B12: P1AF7979 (HLA-G-0090-VL-S32P/CD3 V9) (bispecific antibody, human IgG1, kappa, L234A L235A)
light 1: EVQLVESGGGLVQPGGSLRLSCAASGYSFTGYTMNWVRQAPGKGLEWVALINPYKGVSTYNQKFKDRFTISVDKSKNTAYLQMNSLRAEDTAVYYCARSGYYGDSDWYFDVWGQGTLVTVSSASVAAPSVFIFPPSDEQLKSGTASVVCLLNNFYPREAKVQWKVDNALQSGNSQESVTEQDSKDSTYSLSSTLTLSKADYEKHKVYACEVTHQGLSSPVTKSFNRGEC
light 2: not shown
heavy 1: B11 heavy 1
heavy 2: not shown
notes: as for B11
B13: P1AF7978 (HLA-G-0090-VL-S32P/CD3 Clone 22 (Cl22)) (bispecific antibody, human IgG1, kappa, L234A L235A)
light 1: B11 light 1 with T28Q, A101H, S102T, N103T, A106S, F112Y, A113G
light 2: not shown
heavy 1: B11 heavy 1
heavy 2: not shown
notes: 2+1 T cell bispecific: light chain 1 is the crossed VH(CD3)-CL chain, light chain 2 the HLA-G light chain (two copies, CLM-00046); also called HLA-G-0090-VL-S32P/CD3 Cl22; HLA-G TCB

Each binder was assayed against T2, human HLA-G expressed on cells (JEG3 cells, natural; SKOV3 cells transfected with recombinant HLA-G) (human, UniProt P17693 25-338) (assay: flow cytometry on SKOV3 HLA-G cells (SKOV3 transfected with HLA-G); antibody at 2 µg/ml per legend paragraph 51 (10 µg/ml per paragraph 491); detection with goat anti-human IgG (H+L) Alexa 488).
T2 construct: also called SKOV3 HLA-G

Binder | MFI
B1 | 13100
B2 | 13900
B3 | 14300

These binders were tested against T3, recombinant single-chain HLA-G monomer/human HLA-G β2M MHC class I complex (human) (assay: SPR relative active concentration; Ref. (frozen at -80 C)).
T3 construct: also called wt-HLA-G complex; wt-HLA-G antigen

Binder | relative HLA-G binding signal compared to Ref (as 100%), by SPR RAC [%]
B1 | 100
B2 | 100
B3 | 100

These binders were tested against T2, human HLA-G expressed on cells (JEG3 …) (assay: flow cytometry on JEG3 cells (natural HLA-G); antibody at 2 µg/ml per legend paragraph 51 (10 µg/ml per paragraph 491); detection with goat anti-human IgG (H+L) Alexa 488).

Binder | MFI
B1 | 6060
B2 | 6330
B3 | 6380

What follows are binders tested against T3, recombinant single-chain HLA-G … (assay: SPR single cycle kinetics (Biacore T200, 25 C); antibody captured via Fc on CM3 chip, HLA-G complex as analyte).

Binder | Kd [nM] | koff [s⁻¹] | kon [M⁻¹ s⁻¹] | t½ [min]
B1 | 1.2 | 0.00138 | 1.19e+06 | 8.35
B4 | 23.6 | – | – | 0
B5 | 2 | 0.00373 | 1.91e+06 | 3.1
B6 | 2.3 | 0.000769 | 342000 | 15
B7 | 20.2 | 0.00391 | 194000 | 2.96
B8 | 2 | 0.00107 | 549000 | 10.8
B2 | 1 | 0.00124 | 1.19e+06 | 9.29
B3 | 1 | 0.00124 | 1.24e+06 | 9.3
B9 | 1.7 | 0.00871 | 5.28e+06 | 1.33
B10 | 2.4 | 0.000922 | 383000 | 12.5

Each binder was assayed against T2, human HLA-G expressed on cells (JEG3 …) (assay: flow cytometry; JEG3 cells pre-incubated with antibody, competitor ILT2-c-Myc-Fc at 10 ug/ml).

Binder | inhibition of ILT2 binding to Jeg3 cells [%]
B1 | 72
B2 | 72
B3 | 72

These binders were tested against T2, human HLA-G expressed on cells (JEG3 …) (assay: cell-based or functional assay).

Binder | IFNgamma induction EC50 (nM), JEG3 [nM] | IFNgamma induction EC50 (nM), SKOV3 HLA-G [nM]
B11 | 20 | 30
B12 | 29 | 16
B13 | 2.2 | 2.6

Target: T2, human HLA-G expressed on cells (JEG3 …)
Assay: cell-based or functional assay
Remark: another data set of the same source

Binder | T cell mediated cytotoxicity induction EC50 (nM), JEG3 (Caspase 8 activation) [nM] | T cell mediated cytotoxicity induction EC50 (nM), SKOV3 HLA-G (Caspase 8 activation) [nM]
B11 | 12 | 1.4
B12 | 4.6 | 1
B13 | 2.6 | 1.36

Each binder was assayed against T3, recombinant single-chain HLA-G … (assay: SPR multi cycle kinetics (Biacore T200, 25 C); antibody captured via Fc on CM3 chip, HLA-G complex as analyte).

Binder | Kd [nM] | koff [s⁻¹] | kon [M⁻¹ s⁻¹] | t½ [min]
B1 | 1.4 | 0.00178 | 1.3e+06 | 6.5
B2 | 1.2 | 0.00157 | 1.27e+06 | 7.34
B3 | 1.2 | 0.00149 | 1.24e+06 | 7.76

What follows are binders tested against T4, human CD3 expressed on cells (Jurkat NFAT reporter cells; human T cells isolated from PBMCs) (human, UniProt P07766 23-207) (assay: flow cytometry on human T cells isolated from PBMCs; detection with Alexa Fluor 488 anti-human IgG).
T4 construct: on cells it is part of the CD3/TCR complex; also called CD3 on Jurkat cells; CD3 expressed on T-cells
T4 sequence (P07766 23-207 limits assumed): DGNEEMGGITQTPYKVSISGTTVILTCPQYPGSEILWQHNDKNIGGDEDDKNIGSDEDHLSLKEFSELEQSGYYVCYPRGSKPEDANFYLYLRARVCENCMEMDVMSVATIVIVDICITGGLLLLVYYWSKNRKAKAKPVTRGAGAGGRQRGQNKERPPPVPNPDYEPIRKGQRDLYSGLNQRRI

Binder | binding result
B11 | binds
B12 | binds
B13 | binds

Each binder was assayed against T5, human HLA-G β2M MHC class I complex, wherein the HLA-G specific amino acids have been replaced by HLA-A … (human) (assay: SPR (Biacore T200, 25 C); antibody immobilized on CM3 chip, single-chain peptide-MHC as analyte).
T5 construct: Recombinant single-chain peptide-MHC complex construct; also called HLA-A consensus on HLA-G frame; degrafted HLA-G

Binder | binding result
B1 | no binding
B2 | no binding
B3 | no binding

Target: T1, rat RT1 (SEQ ID NO: 43)
Assay: as above

Binder | binding result
B1 | no binding
B2 | no binding
B3 | no binding

These binders were tested against T2, human HLA-G expressed on cells (JEG3 …) (assay: flow cytometry, cell binding on SKOV3 HLA-G cells).

Binder | EC50 [nM]
B11 | 1.5
B12 | 0.58
B13 | 0.15

The binders below were run against T2, human HLA-G expressed on cells (JEG3 …) (assay: flow cytometry, cell binding on JEG3 cells).

Binder | EC50 [nM]
B11 | 0.42
B12 | 0.36
B13 | 0.12

These binders were tested against T3, recombinant single-chain HLA-G … (assay: SPR relative active concentration; after 13 days PBS pH 7.4 at 37 C).

Binder | relative HLA-G binding signal compared to Ref (as 100%), by SPR RAC [%]
B1 | 96
B2 | 98
B3 | 96

The binders below were run against T3, recombinant single-chain HLA-G … (assay: SPR relative active concentration; after 13 days His pH 6.0 at 40 C).

Binder | relative HLA-G binding signal compared to Ref (as 100%), by SPR RAC [%]
B1 | 99
B2 | 99
B3 | 99
